Measurements as given in US7144983 (Genentech, dated 2006).

Assays:
[1] = molecular target: T1, rat trkA recombinantly expressed on NIH3T3 cells (rat, UniProt P35739 33-799); assay: 125I-hNGF displacement, NIH3T3-trkA cells, 4 C
T1 construct: whole, on cells; also called NIH3T3-trkA; p140trkA

[2] = molecular target: T2, p75 on A875 human melanoma cells (human, UniProt P08138 29-427); assay: 125I-hNGF displacement, A875 cells (p75), 4 C
T2 construct: whole, on cells; also called A875-p75
T2 sequence (looked up): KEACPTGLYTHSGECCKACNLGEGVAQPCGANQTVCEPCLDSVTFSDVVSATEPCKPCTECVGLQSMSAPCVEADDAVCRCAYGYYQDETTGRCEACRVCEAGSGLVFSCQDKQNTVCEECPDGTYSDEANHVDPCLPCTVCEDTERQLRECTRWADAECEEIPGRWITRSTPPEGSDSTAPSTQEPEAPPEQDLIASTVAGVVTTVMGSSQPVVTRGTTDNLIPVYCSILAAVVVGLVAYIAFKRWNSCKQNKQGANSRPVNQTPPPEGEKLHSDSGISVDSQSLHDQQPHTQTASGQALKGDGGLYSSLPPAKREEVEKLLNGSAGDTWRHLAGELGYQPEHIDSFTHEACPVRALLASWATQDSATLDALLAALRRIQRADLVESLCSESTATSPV

[3] = molecular target: T1, rat trkA recombinantly expressed on …; assay: cell-based or functional assay
[4] = molecular target: trkA on parental PC12 cells (rat, UniProt P35739 33-799); assay: cell-based or functional assay
Sequence of trkA on parental PC12 cells (P35739 33-799): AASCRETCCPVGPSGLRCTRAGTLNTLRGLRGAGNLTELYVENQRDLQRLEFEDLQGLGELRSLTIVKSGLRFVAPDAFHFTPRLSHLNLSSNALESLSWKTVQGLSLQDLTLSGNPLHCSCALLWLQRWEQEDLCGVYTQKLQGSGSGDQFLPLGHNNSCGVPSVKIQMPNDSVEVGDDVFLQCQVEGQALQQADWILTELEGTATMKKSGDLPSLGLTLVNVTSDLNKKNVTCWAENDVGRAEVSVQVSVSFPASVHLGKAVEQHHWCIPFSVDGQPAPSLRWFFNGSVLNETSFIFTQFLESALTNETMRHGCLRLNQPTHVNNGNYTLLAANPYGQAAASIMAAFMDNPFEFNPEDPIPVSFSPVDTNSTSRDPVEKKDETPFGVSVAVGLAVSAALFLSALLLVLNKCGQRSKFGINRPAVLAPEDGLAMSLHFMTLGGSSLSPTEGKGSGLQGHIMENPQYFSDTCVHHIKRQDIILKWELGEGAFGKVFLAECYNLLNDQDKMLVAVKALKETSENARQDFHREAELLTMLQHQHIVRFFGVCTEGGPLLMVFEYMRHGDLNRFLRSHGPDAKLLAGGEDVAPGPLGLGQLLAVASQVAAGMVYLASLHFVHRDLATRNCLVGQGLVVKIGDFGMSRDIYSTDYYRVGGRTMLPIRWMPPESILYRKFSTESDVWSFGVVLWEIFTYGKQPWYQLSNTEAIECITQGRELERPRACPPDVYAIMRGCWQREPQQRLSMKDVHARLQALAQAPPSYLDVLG

T1 sequence (P35739 33-799): as above

B1: hNGF Mut 5 (hBDNF N-terminal chimeric mutant) (ligand)
chain: HSDPAHRGEFSVCDSVSVWVGDKTTATDIKGKEVMVLGEVNINNSVFKQYFFETKCRDPNPVDSGCRGIDSKHWNSYCTTTHTFVKALTMDGKQAAWRFIRIDTACVCVLSRKAVRRA
[1]
  IC50 mut/NGF: > 40 ratio
[2]
  IC50: 0.21 nM
  IC50 mut/NGF: 1 ratio
[3]
  trkA autophosphorylation, maximal level at 1 × 10^-8 M, mutant/hNGF: 0.07 ratio
[4]
  PC12 neurite outgrowth EC50: 0.016 µg/mL
  PC12 neurite outgrowth EC50 mutant/hNGF: 114 ratio
